The values that follow come from US20130123173A1, “CREATION OF OXIDATION-RESISTANT HDL MIMETIC PEPTIDES” (The Regents of the University of California, priority 2010, published 2013).

“Also recorded” adds a separate entry of the source.

Series [1] has as its system J774 macrophages. Put plainly: Cholesterol efflux from cAMP-treated J774 macrophages (ABCA1 cholesterol efflux). To be noted: for change of cholesterol efflux activity upon exposure to acrolein: excess molar acrolein; for cholesterol efflux activity: no oxidant exposure, lipid-free peptides, cAMP-treated J774 macrophages. The format is cell-based. As to the method: FIG. 1 provides data showing the sensitivity of ABCA1 efflux peptide ATI-5261 and an analog to acrolein. ATI-5261 was engineered with arginine (R) in place of lysine (K) at positions 5 and 25 (K5, 25/R), creating an oxidation-resistant analog. […] Panel B. Dependence of cholesterol efflux on ABCA1 expression, as judged with and without cAMP (no oxidant exposure). Peptides were used in lipid-free form at […]. Panel C. Peptides were incubated (37° C., 24 h) with acrolein at a molar ratio of 50:1 (acrolein:peptide) in the presence of DTPA; excess aminoguanidine was added to terminate reactions and peptides dialyzed to PBS. Cholesterol efflux (8 h) was assessed using cAMP-treated J774 cells and peptides at 2 mg/ml. Values are % of control efflux with peptides not treated with acrolein.
Panel D. Impact of varying molar ratio of acrolein relative to ATI-5261 on cholesterol efflux from cAMP treated J774 cells.
Suitable cholesterol efflux assays are described in, e.g., Bielicki, J. K and Oda, M. N., Biochemistry, 41:2089-2096 (2002); Jia et al., Biochem. Biophys. Res. Common., 297:206-213 (2002). In some embodiments, a polypeptide known to mediate cholesterol efflux (e.g., helix 9/10 of Apo A-I) is used to screen for additional mediators of cholesterol efflux in a cell based assay. For example, cell lines in which cholesterol efflux can be enhanced using a cAMP analog that up-regulates ABCA1 protein expression (e.g., J774 macrophages) can conveniently be used to assess the ability of a polypeptide of the present invention to mediate cholesterol efflux. The cells are incubated with labeled cholesterol (e.g., [^3H]cholesterol) under conditions appropriate for cholesterol uptake by the cells. Thus, cAMP or cAMP analogs (e.g., CPT-cAMP) are incubated with the cells for a suitable time before the initiation of cellular cholesterol efflux, i.e., prior to contacting the cells with a test polypeptide. Measurement of labeled cholesterol appearing in the medium is used to determine the cholesterol efflux mediating activity of the test polypeptide.

The subject of series [2] is macrophage reverse cholesterol transport. The series is described as follows: Macrophage reverse cholesterol transport upon exposure to oxidative stress. The note with it: vs ATI-5261. The format is in vivo.
The nature of series [3]: α-helical content (secondary structure) of peptides with and without acrolein. It is filed as physicochemical. The note with it: for α-helical content: 10 mM phosphate buffer (pH=7.4); for α-helical content, comparison in words: FIG. 2 legend, vs ATI-5261 control or vs untreated peptide. Here is the method:
FIG. 2 provides data showing the % α-helical content of ATI-5261 and the K5, 25→R analog peptide. Peptides in 10 mM phosphate buffer (pH=7.4) were analyzed. […] Biosyn. denotes source (commercial vendor) used to synthesize peptides (same for all peptides).

The nature of series [4]: SDS-PAGE analysis of peptides following exposure to acrolein (cross-linking). The note with it: 20-fold molar excess of acrolein, 37° C., 20 h. The format is physicochemical. Here is the method:
Peptides ATI-5261 and K5,25 were exposed to 20-fold molar excess of acrolein or buffer alone and incubated 37° C. for 20 h. Lane 1—MW standards (kDa); lane 2, K5,25→R peptide exposed to acrolein; Lane3, ATI-5261 exposed to acrolein; lane 4, K5, 25→R peptide buffer control; Lane 5, ATI-5261 buffer control. Peptide loads were 3 μg/well.

A further series relates to atherosclerosis. To be noted: mice fed high-fat western-diet; cited from earlier work.
The test system of series [5] is J774 macrophages. The note with it: background statement; cited from earlier work.
For a further series, the target named is ABCA1 (UniProt P41233 1-2261, limits assumed). Put plainly: cell-based or functional assay.
Sequence of ABCA1 (P41233 whole entry): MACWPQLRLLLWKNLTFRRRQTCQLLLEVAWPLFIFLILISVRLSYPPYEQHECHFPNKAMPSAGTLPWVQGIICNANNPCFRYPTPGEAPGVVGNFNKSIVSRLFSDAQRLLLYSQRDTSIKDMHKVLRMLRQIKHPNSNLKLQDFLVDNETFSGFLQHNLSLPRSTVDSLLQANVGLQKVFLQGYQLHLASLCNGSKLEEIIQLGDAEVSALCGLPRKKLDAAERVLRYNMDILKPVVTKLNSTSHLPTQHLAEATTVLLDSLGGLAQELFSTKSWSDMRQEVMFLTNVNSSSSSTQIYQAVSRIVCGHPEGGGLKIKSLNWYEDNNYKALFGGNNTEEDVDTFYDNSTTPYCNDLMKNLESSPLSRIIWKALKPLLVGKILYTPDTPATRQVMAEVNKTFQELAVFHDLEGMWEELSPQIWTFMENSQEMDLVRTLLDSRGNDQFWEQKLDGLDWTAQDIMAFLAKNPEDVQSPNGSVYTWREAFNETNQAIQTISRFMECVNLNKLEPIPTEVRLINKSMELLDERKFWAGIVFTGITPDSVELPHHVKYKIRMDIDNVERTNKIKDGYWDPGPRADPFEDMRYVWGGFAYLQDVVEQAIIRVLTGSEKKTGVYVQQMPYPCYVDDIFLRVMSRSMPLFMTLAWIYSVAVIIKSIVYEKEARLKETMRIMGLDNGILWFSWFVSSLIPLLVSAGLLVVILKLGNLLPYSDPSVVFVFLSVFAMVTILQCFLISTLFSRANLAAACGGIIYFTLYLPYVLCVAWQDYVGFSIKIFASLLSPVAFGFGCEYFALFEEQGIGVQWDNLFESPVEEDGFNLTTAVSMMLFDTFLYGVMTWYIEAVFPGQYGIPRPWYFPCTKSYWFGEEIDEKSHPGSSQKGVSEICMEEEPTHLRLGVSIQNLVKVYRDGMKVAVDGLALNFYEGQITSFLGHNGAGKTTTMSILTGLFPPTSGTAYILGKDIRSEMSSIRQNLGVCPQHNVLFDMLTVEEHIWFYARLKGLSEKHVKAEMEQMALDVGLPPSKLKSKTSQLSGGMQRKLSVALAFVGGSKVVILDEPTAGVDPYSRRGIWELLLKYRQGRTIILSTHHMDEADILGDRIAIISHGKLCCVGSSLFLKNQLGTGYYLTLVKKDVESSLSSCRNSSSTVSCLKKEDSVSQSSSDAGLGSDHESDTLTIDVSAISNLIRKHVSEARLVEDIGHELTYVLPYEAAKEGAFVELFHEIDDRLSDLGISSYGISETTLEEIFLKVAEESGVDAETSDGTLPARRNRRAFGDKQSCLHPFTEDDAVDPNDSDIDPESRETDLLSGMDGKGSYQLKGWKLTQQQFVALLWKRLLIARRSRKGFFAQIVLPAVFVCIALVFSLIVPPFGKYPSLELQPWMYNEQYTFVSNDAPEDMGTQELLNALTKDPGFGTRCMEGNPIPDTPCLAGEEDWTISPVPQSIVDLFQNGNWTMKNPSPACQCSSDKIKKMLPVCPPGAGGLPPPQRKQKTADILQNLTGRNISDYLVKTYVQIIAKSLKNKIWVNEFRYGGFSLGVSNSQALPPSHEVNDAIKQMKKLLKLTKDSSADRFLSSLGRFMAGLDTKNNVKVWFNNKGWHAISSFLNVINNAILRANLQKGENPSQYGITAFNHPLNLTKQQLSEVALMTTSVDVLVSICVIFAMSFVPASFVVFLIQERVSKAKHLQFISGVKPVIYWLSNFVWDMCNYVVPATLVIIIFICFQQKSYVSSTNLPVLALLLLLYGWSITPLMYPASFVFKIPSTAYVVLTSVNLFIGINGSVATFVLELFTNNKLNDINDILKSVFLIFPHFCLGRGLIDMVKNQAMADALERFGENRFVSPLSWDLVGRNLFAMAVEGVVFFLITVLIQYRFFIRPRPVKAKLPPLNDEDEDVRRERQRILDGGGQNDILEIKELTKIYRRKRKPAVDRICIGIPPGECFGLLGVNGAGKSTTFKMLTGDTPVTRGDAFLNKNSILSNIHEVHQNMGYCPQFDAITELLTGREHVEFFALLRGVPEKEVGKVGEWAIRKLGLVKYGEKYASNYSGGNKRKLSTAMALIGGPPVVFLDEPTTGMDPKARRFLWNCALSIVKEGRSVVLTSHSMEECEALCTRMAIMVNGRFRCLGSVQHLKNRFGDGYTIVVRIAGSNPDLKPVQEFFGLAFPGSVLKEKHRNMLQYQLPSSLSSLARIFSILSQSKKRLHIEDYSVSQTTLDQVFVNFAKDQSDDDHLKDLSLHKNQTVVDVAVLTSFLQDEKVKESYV

As for “EVRSRLEEWFAAFREFAEEFLARLRS [K5,25→R, ATI-5261 with arginine in place of lysine at positions 5 and 25]”, the “augmentation of cholesterol efflux activity by acrolein” value in the series on J774 macrophages [1] (acrolein-treated peptide vs untreated peptide) was about 70%. Besides, the “change of cholesterol efflux activity upon exposure to acrolein” value in the series with J774 macrophages [1] is “increased upon exposure to acrolein”. Also, the cholesterol efflux activity result with J774 macrophages [1] was “stimulated cholesterol efflux (4 h) efficiently”; in the series with J774 macrophages [1] (listed as K→R), “no effect on cholesterol efflux activity”. Further, the “macrophage reverse cholesterol transport” value in series [2] is on record as “greatly improved macrophage reverse cholesterol transport”. Besides, the α-helical content in series [3] (+Acrolein) amounted to 72.6%; in series [3] (no acrolein) it was 56.8%. Moreover, the “α-helical content, comparison in words” value in series [3] was “lower α-helical content compared to the ATI-5261 control; also recorded: increase in α-helical content”.
In the case of “EVRSKLEEWFAAFREFAEEFLARLKS (synthetic amphipathic alpha helix HDL mimetic peptide ATI-5261 susceptible to oxidation that stimulates ATP binding cassette protein ABCA1-dependent cholesterol efflux based on apolipoprotein AI (ApoA-I) alpha-helical motif) [26-mer prototype/parent HDL mimetic ABCA1 efflux peptide, oxidation susceptible, reference compound]”, the “cross-linking of the peptide after acrolein treatment” value in series [4] is listed as “substantial cross-linking”. Also, the effect on atherosclerosis entry with atherosclerosis is reported as “reduce substantial atherosclerosis”. Further, the “change of cholesterol efflux activity upon exposure to acrolein” value in the series with J774 macrophages [1] was “marked decrease in cholesterol efflux activity”. Also, in the series on J774 macrophages [1], the cholesterol efflux activity result is reported as “stimulated cholesterol efflux (4 h) efficiently”. In the series on J774 macrophages [5], the “molar potency for ABCA1 cholesterol efflux relative to native apoA-I” value was “nearly the same molar potency as native apoA-I”. The α-helical content was found to be 48.3% in series [3] (+Acrolein) and 72.7% in series [3] (no acrolein). The “α-helical content, comparison in words” value in series [3] is “significantly lower helical content”.
As for EVRSKLEEWFAAFREFAEEFLARLKS [ATI-5261], in the series with ABCA1, the “reduction of cholesterol efflux activity after acrolein exposure, molar acrolein:peptide ratio 5:1” value was 50%; the “reduction of cholesterol efflux activity after acrolein exposure, molar acrolein:peptide ratio 10:1” value stood at 70%; the “reduction of cholesterol efflux activity after acrolein exposure, molar acrolein:peptide ratio 20:1” value is 93%.
